Experimental data from US20040072168A1, “Novel deoxynucleoside kinase enzyme variants” (priority 2000, published 2004).

Key:
[1] = tested on: TK deficient E. coli strain KY895; experiment: Determination of LD100 of nucleoside analogues on M9 plates, E. coli KY895 transformed with kinase variant plasmids; assay type: cell-based; conditions: KY895 expressing the variant
Excerpt: The mutagenized PCR fragments were purified by the PCR Kit from Boehringer Mannhein, cut with BamHI and EcoRI and sub-cloned into the multiple cloning site of the pGEX-2T plasmid vector. The TK deficient E. coli strain KY895 [F tdk-1 ilv] [Igarashi K, Hiraga S & Yura T: A deoxythymidine kinase deficient mutant of Eschericha coli. II. Mapping and transduction studies with phage Φ80; Genetics 1967 57 643-6541, was electro-transformed with the ligation mix, using standard techniques, and plated on LB-ampicillin (100 μg/ml) plates.
Overnight cultures of these colonies were diluted 200-fold in 10% glycerol and 2 μl drops of the dilution were spotted on M9 minimal medium plates [Ausubel F, Brent R, Kingston R E, Moore D D, Seidman J G, Smith J A & Struhl K (Eds.): Short protocols in molecular biology; Wiley, USA, 3rd Edition, 1995, p.1-2] supplemented with 0.2% glucose, 40 μg/ml isoleucine, 40 μg/ml valine, 100 μg/ml ampicillin and with or without nucleoside analogues.
All clones with increased sensitivity towards at least one nucleoside analogue were tested on M9 plates with logarithmic dilution of the nucleoside analogues to determine the lethal dose (LD100) of the nucleoside analogues, at which no growths of bacteria could be seen.
Plates were prepared by mixing the medium with the analogues at the lowest temperature possible, before pouring the plates.

[2] = cited from earlier work

B1: Dm-dNK: wild-type Drosophila melanogaster deoxyribonucleoside kinase (SEQ ID NO: 1) (protein)
chain: MAEAASCARKGTKYAEGTQPFTVLIEGNIGSGKTTYLNHFEKYKNDICLLTEPVEKWRNVNGVNLLELMYKDPKKWAMPFQSYVTLTMLQSHTAPTNKKLKIMERSIFSARYCFVENMRRNGSLEQGMYNTLEEWYKFIEESIHVQADLIIYLRTSPEVAYERIRQRARSEESCVPLKYLQELHELHEDWLIHQRRPQSCKVLVLDADLNLENIGTEYQRSESSIFDAISSNQQPSPVLVSPSKRQRVAR
modifications: Drosophila melanogaster; CDS (1)..(750)
- LD100 araC ([1]; lethal dose (no growth of bacteria) of araC, range 3.16-1000 μM): 1000 µM
- LD100 2CdA ([1]; lethal dose of 2CdA, range 0.0316-100 μM, second line of last column): 100 µM
- LD100 AZT ([1]; lethal dose of AZT, range 0.01-100 μM): 100 µM
- LD100 araA ([1]; lethal dose of araA, range 10-1000 μM, third line of last column): >1000 µM
- LD100 ddA ([1]; lethal dose of ddA, range 0.316-31.6 μM): 31.6 µM
- LD100 ddC ([1]; lethal dose of ddC, range 10-3500 μM, first line of last column): >3500 µM
- catalytic rate of deoxyribonucleoside phosphorylation, higher than reported for any of the mammalian deoxyribonucleoside kinases ([2]; depending on the substrate): 4-20,000 fold
- turnover of thymidine, higher than catalysed by HSV1 thymidine kinase ([2]; thymidine, versus HSV1-TK): 70 fold
